Assay results: paper PMC10866564 (Science Advances, 2024)

Assays:
Assay in all cases: SEC-MALS
6×His-SYP-3 (C. elegans) = 6×His-SYP-3 (C. elegans) (UniProt O62238)
SEC-MALS = biological target: the molecule itself
6×His-SYP-3 = biological target: T1, 6×His-SYP-3 (C. elegans, UniProt O62238 1-224)
T1 sequence: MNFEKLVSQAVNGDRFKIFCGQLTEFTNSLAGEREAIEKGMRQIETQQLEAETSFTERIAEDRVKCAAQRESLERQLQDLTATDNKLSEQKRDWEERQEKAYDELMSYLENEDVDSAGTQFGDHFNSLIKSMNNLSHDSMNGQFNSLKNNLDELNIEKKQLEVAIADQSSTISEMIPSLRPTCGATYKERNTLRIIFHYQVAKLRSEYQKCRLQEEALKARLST

SYP-1 (recombinant, untagged) (natural protein)
stoichiometry N (copies of each protein in the complex) (6×His-SYP-3 (C. elegans)): 4

SYP-5 (recombinant, untagged) (natural protein)
stoichiometry N (copies of each protein in the complex) (6×His-SYP-3 (C. elegans)): 4

B1: 6×His-SKR-1^WT (natural protein)
chain: MADQKKVSEAAKEREIKISSSDNEIFLVPRNVIRLSNTINTLLMDLGLDDEEGTNAEPIPVQNVTASILKKVISWCNHHHSDPISTEDSDNREKRTDDIGSWDVEFLKVDQGTLFELILAANYLDIKGLLDVTCKTVANMIKGKSPEEIRRTFNIKNDFTPEEEEQIRKENAWCED
stoichiometry N (SEC-MALS): 2

B2: SKR-1 (recombinant, untagged) (natural protein)
chain: MADQKKVSEAAKEREIKISSSDNEIFLVPRNVIRLSNTINTLLMDLGLDDEEGTNAEPIPVQNVTASILKKVISWCNHHHSDPISTEDSDNREKRTDDIGSWDVEFLKVDQGTLFELILAANYLDIKGLLDVTCKTVANMIKGKSPEEIRRTFNIKNDFTPEEEEQIRKENAWCED
stoichiometry N (6×His-SYP-3): 4 copies of each protein in the complex

B3: 6×His-SKR-1^I155A,W173A (natural protein)
chain: MADQKKVSEAAKEREIKISSSDNEIFLVPRNVIRLSNTINTLLMDLGLDDEEGTNAEPIPVQNVTASILKKVISWCNHHHSDPISTEDSDNREKRTDDIGSWDVEFLKVDQGTLFELILAANYLDIKGLLDVTCKTVANMIKGKSPEEIRRTFNAKNDFTPEEEEQIRKENAACED
stoichiometry N (SEC-MALS): 2

B4: SYP-2 (recombinant, untagged) (natural protein)
chain: MNSAHRSSLKKRPGPQDDRRVSFASPVSSSQKTAAVTVAAQTKQPAKAKNLRTMHSTPKKSKPAHDVADIISLVSKQSDILDDVSEIEHKMIKQAKMTQDLTMELANSIERIANMALAESKLSDQMEKQSKKLISLEGKTKELVEKANNWSKTLENRVDARSHHSTCLNDVQAAIKIINNAKINNDGFSEDFSAHYDKLLDLVETLEPWADKL
stoichiometry N (6×His-SYP-3): 4 copies of each protein in the complex

B5: SYP-4 (recombinant, untagged) (natural protein)
chain: MSFPTLQVRPNEKNPKVLRCHEFLRQSNQLVERNMINTEGRKMLAKLLTKMVSEAKGIYALDERRAELAKSGKLQEKLKSAYQTSLTVMEDRLHIAELSRQVQEKKLTVQQKYYECDDLRKSVQETNTEARRVQEINEQRLVDTTRATEELIVKSASILKNLENSSDVHKLRAMEEEKRILEEVVEGLRDQKKCLADDIRTKKATLKAESKKSFEKTVIECAKHYKLHQSLMPKLDKSKRSLETLKDEEENRRICGSLSLDETMQFDRSFILASMDKTNKPEKAVQQLTSKSSEVSITPQISETAKSSFSKEPIPTQHPMEVGEEPVIEHSAEESVHIEPPNVTEIREVVPQITIQPTRQDSVVQRDAEELDTSAVPSPQPESILDEPEEEEEELSNHENHADQSMDVMEVDQEVPEESPMEVGEQEEIEQPSVFKDILATEQAALSQEQEPEIVEKQADNDVQFVDDQQVGAQLDVEDEEEVMSENGSNKSNNFSFNFFGNSKGTSAGEGGGEGNFDFNFDGIGAGDDGSNNGGSTGDLDFLNYDGEDEGKGSGNTQSDPFGFASNGNAAGGGGDGSFNFNFDGDGEGGATSGAGGNSTSFFNF
stoichiometry N (6×His-SYP-3): 4 copies of each protein in the complex
